Experimental data taken from US20100216170A1.

Assays:
[1] = target: mutant membrane-bound TNFα on stably transfected CHO cells (B-220 cells) (UniProt P01375); assay: FACS, beads with CHO-TNFα (B220), sample 2
[2] = target: mutant membrane-bound TNFα on stably transfected CHO cells (B-220 cells) (UniProt P01375); assay: FACS, gate P4 (CHO cells with anti-CD19 beads), middle panel of FIG. 3
[3] = target: mutant membrane-bound TNFα on stably transfected CHO cells (B-220 cells) (UniProt P01375); assay: FACS, gate P4 (CHO cells with anti-CD19 beads), FIG. 4

UniProt P01375, sequence (P01375 whole entry, change not shown): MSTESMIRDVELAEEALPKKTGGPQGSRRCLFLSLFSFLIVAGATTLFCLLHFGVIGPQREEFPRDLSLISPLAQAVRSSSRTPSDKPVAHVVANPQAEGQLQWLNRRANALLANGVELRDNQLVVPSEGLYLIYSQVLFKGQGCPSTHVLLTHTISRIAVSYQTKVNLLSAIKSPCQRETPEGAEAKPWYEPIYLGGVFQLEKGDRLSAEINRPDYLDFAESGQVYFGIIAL

- % bound beads [1]: 0.9%
- #Events [2]: 6 events
- % Parent [2]: 0.1%
- % Total [2]: 0.1%
- #Events [3]: 2 events
- % Parent [3]: 0%
- % Total [3]: 0%
Substance: APC-labeled unrelated antibody (anti-CD19) coated on beads
